Entries after “also recorded” stand apart in the source; their conditions may differ.
T1: ART2b(R204K) (Rattus norvegicus, UniProt P20974, R204K)
T1 construct: made in house; host or cells: rat mammary adenocarcinoma (NMU) cells, pMAMneo vector, dexamethasone-induced; released with PI-PLC
T1 sequence (P20974 21-246 R204K limits assumed): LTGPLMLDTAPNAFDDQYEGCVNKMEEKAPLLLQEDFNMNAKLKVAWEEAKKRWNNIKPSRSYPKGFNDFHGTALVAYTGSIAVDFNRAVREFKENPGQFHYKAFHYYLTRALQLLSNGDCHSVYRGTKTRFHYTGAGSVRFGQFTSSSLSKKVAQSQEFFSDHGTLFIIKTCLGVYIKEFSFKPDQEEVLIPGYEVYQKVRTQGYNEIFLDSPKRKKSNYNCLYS


Assays:
[1] = NAD glycohydrolase (NADase) assay; assay type: biochemical, rat; settings: for NADase activity: PI-PLC released recombinant protein from NMU cells, 0.1 mM [carbonyl-^14C]NAD, 1 hour at 30° C.; for NADase activity during the course of the reaction (rate of NAD hydrolysis): change over the course of the reaction
Description: (§1) NADase activity was measured in DPBS with 0.1 mM [carbonyl-^14C]NAD (8×10^4 cpm) for 1 hour at 30° C., (total volume=150,u). Samples (50,u) were applied to AG1-X2 (BIO-RAD, Hercules, Calif.) columns (0.4×4 cm), equilibrated and eluted with water for liquid scintillation counting as described (Moss et al., Proc Natl Acad Sci U S A 73(12):4424-7, 1976). Transferase activity was assayed similarly with or without 20 mM agmatine as ADP-ribose acceptor and with [adenine-^14C]NAD substituted for [carbonyl-^14C]NAD.

[2] = Auto-ADP-ribosylation of PI-PLC released recombinant ART2 proteins with [^32P]NAD, SDS-PAGE; assay type: biochemical, rat; settings: for auto-ADP-ribosylation: [^32P]NAD added to PI-PLC released protein, SDS-PAGE; for auto-ADP-ribosylation at multiple sites (decrease in mobility on SDS-PAGE): 10 μM [^32P]NAD, followed by 5 mM unlabeled NAD
Description: To investigate the structural basis for these differences in catalytic function, site-specific mutagenesis was employed with synthesis of recombinant ART2b and ART2a proteins in rat adenocarcinoma cells (NMU) under a dexamethasone-sensitive promoter. After induction and expression of the GPI-anchored proteins, cells were incubated with PI-PLC to cleave the GPI anchor and then [^32P]-NAD was added to the medium to promote auto-ADP-ribosylation of the released protein (FIG. 2).
To assess the ability of ART2 proteins, ART2a and ART2b, to be auto-ADP-ribosylated at multiple sites, proteins were incubated first with 10 μM [^32P]NAD, followed by addition of 5 mM unlabeled NAD and further incubation (FIG. 4). […] It is unlikely that auto-modification was due to non-enzymatic addition of [^32P]ADP-ribose since reactions were carried out in the presence of 1 mM ADP-ribose, or due to NAD binding, since the radiolabel was not displaced by incubation with 5 mM NAD.

[3] = biological target: T1, ART2b(R204K); test: Incubation of wildtype ART2b with ART2b(R204K) and millimolar NAD (intermolecular modification); assay type: biochemical; settings: millimolar NAD, with or without ART2b(R204K)
Description: The blots contain samples from cells expressing wild type ART2b (lanes 1), ART2b(R204K) (lanes 2), or a mixtures of samples containing ART2b and ART2b(R204K) (lanes 3). Samples were incubated with or without 10 μM [^32P]NAD followed by either TCA precipitation or further incubation with 5 mM NAD. The radiolabeled wild type ART2b and ART2b(R204K) proteins were combined and then incubated with or without 5 mM NAD.
To investigate whether ART2b(R204K) could be modified, wildtype ART2b was incubated with its mutant ART2b(R204K) and millimolar NAD (FIG. 5).

[4] = ADP-ribosyltransferase assay with agmatine as ADP-ribose acceptor; assay type: biochemical, rat; settings: 20 mM agmatine as ADP-ribose acceptor
Description: as §1

Molecule | NADase activity [1] | auto-ADP-ribosylation [2] | NADase activity during the course of the reaction (rate of NAD hydrolysis) [1] | modification (mobility on SDS-PAGE) after incubation of wildtype ART2b with ART2b(R204K) and NAD [3] | auto-ADP-ribosylation at multiple sites (decrease in mobility on SDS-PAGE) [2] | transfer of ADP-ribose to agmatine [4]
ART2a: rat ADP-ribosyltransferase ART2a (RT6.1), SEQ ID NO:11, wild type (protein, listed as Rattus norvegicus) MPSNICKFFLTWWLIQQVTGLTGPLMLDTAPNAFDDQYEGCVNKMEEKAPLLLKEDFNKSEKLKVAWEEAKKRWNNIKPSMSYPKGFNDFHGTALVAYTGSIGVDFNRAVREFKENPGQFHYKAFHYYLTRALQLLSNGDCHSVYRGTKTRFHYTGAGSVRFGQFTSSSLSKTVAQSPEFFSDDGTLFIIKTCLGVYIKEFSFYPDQEEVLIPGYEVYQKVRTQGYNEIFLDSPKRKKSNYNCLYSSAGTRESCVSLFLVVLTSLLVQLLCLAEP | have NADase activity | not significantly auto-modified |  |  |  | 
ART2b(R204K): rat ART2b with arginine-to-lysine substitution at position 204 (protein) LTGPLMLDTAPNAFDDQYEGCVNKMEEKAPLLLQEDFNMNAKLKVAWEEAKKRWNNIKPSRSYPKGFNDFHGTALVAYTGSIAVDFNRAVREFKENPGQFHYKAFHYYLTRALQLLSNGDCHSVYRGTKTRFHYTGAGSVRFGQFTSSSLSKKVAQSQEFFSDHGTLFIIKTCLGVYIKEFSFKPDQEEVLIPGYEVYQKVRTQGYNEIFLDSPKRKKSNYNCLYS |  | abolished both the primary and secondary modifications | did not change | not modified by wildtype ART2b in an intermolecular reaction | not modified by incubation with NAD | 
ART2a(M81R): rat ART2a with methionine-to-arginine substitution at position 81 (protein) LTGPLMLDTAPNAFDDQYEGCVNKMEEKAPLLLKEDFNKSEKLKVAWEEAKKRWNNIKPSRSYPKGFNDFHGTALVAYTGSIGVDFNRAVREFKENPGQFHYKAFHYYLTRALQLLSNGDCHSVYRGTKTRFHYTGAGSVRFGQFTSSSLSKTVAQSPEFFSDDGTLFIIKTCLGVYIKEFSFYPDQEEVLIPGYEVYQKVRTQGYNEIFLDSPKRKKSNYNCLYS |  | had no effect |  |  |  | 
ART2a(59MNA61,Y204R): rat ART2a with K59M, S60N, E61A and Y204R substitutions, non-glycosylated (protein, UniProt P17982 21-246, looked up, variant K59M S60N E61A Y204R) T-cell …: LTGPLMLDTAPNAFDDQYEGCVNKMEEKAPLLLKEDFNMNAKLKVAWEEAKKRWNNIKPSMSYPKGFNDFHGTALVAYTGSIGVDFNRAVREFKENPGQFHYKAFHYYLTRALQLLSNGDCHSVYRGTKTRFHYTGAGSVRFGQFTSSSLSKTVAQSPEFFSDDGTLFIIKTCLGVYIKEFSFRPDQEEVLIPGYEVYQKVRTQGYNEIFLDSPKRKKSNYNCLYS |  |  |  |  | exhibited auto-ADP-ribosylation following incubation with 5 mM NAD | 
ART2a(Y204R): rat ART2a with tyrosine-to-arginine substitution at position 204 (protein) LTGPLMLDTAPNAFDDQYEGCVNKMEEKAPLLLKEDFNKSEKLKVAWEEAKKRWNNIKPSMSYPKGFNDFHGTALVAYTGSIGVDFNRAVREFKENPGQFHYKAFHYYLTRALQLLSNGDCHSVYRGTKTRFHYTGAGSVRFGQFTSSSLSKTVAQSPEFFSDDGTLFIIKTCLGVYIKEFSFRPDQEEVLIPGYEVYQKVRTQGYNEIFLDSPKRKKSNYNCLYS |  | auto-ADP-ribosylation of both glycosylated 33 kDa and nonglycosylated 29 kDa forms was observed |  |  | exhibited auto-ADP-ribosylation following incubation with 5 mM NAD | 
ART2b(R81K): rat ART2b with arginine-to-lysine substitution at position 81 (protein) LTGPLMLDTAPNAFDDQYEGCVNKMEEKAPLLLQEDFNMNAKLKVAWEEAKKRWNNIKPSKSYPKGFNDFHGTALVAYTGSIAVDFNRAVREFKENPGQFHYKAFHYYLTRALQLLSNGDCHSVYRGTKTRFHYTGAGSVRFGQFTSSSLSKKVAQSQEFFSDHGTLFIIKTCLGVYIKEFSFRPDQEEVLIPGYEVYQKVRTQGYNEIFLDSPKRKKSNYNCLYS |  | no effect on auto-ADP-ribosylation |  |  | exhibited auto-ADP-ribosylation following incubation with 5 mM NAD | 
ART2b(R204W): rat ART2b with arginine-to-tryptophan substitution at position 204 (protein, UniProt P20974 21-246, looked up, variant R204W) T-cell …: LTGPLMLDTAPNAFDDQYEGCVNKMEEKAPLLLQEDFNMNAKLKVAWEEAKKRWNNIKPSRSYPKGFNDFHGTALVAYTGSIAVDFNRAVREFKENPGQFHYKAFHYYLTRALQLLSNGDCHSVYRGTKTRFHYTGAGSVRFGQFTSSSLSKKVAQSQEFFSDHGTLFIIKTCLGVYIKEFSFWPDQEEVLIPGYEVYQKVRTQGYNEIFLDSPKRKKSNYNCLYS | greater than that of wild-type ART2b | auto-ADP-ribosylation at non-arginine sites | decreased during the course of the reaction |  | weak auto-ADP-ribosylation activity at multiple sites | unable to transfer ADP-ribose to agmatine
ART2a(M81R,Y204R): rat ART2a with M81R and Y204R substitutions (protein, UniProt P17982 21-246, looked up, variant M81R Y204R) T-cell …: LTGPLMLDTAPNAFDDQYEGCVNKMEEKAPLLLKEDFNKSEKLKVAWEEAKKRWNNIKPSRSYPKGFNDFHGTALVAYTGSIGVDFNRAVREFKENPGQFHYKAFHYYLTRALQLLSNGDCHSVYRGTKTRFHYTGAGSVRFGQFTSSSLSKTVAQSPEFFSDDGTLFIIKTCLGVYIKEFSFRPDQEEVLIPGYEVYQKVRTQGYNEIFLDSPKRKKSNYNCLYS |  | auto-ADP-ribosylation of both glycosylated 33 kDa and nonglycosylated 29 kDa forms was observed |  |  | exhibited auto-ADP-ribosylation following incubation with 5 mM NAD | 
ART2b: rat ADP-ribosyltransferase ART2b (RT6.2), SEQ ID NO:12, wild type (protein, listed as Rattus norvegicus) MPSNICKFFLTWWLIQQVTGLTGPLMLDTAPNAFDDQYEGCVNKMEEKAPLLLQEDFNMNAKLKVAWEEAKKRWNNIKPSRSYPKGFNDFHGTALVAYTGSIAVDFNRAVREFKENPGQFHYKAFHYYLTRALQLLSNGDCHSVYRGTKTRFHYTGAGSVRFGQFTSSSLSKKVAQSQEFFSDHGTLFIIKTCLGVYIKEFSFRPDQEEVLIPGYEVYQKVRTQGYNEIFLDSPKRKKSNYNCLYSSAGARESCVSLFLVVLPSLLVQLLCLAEP | have NADase activity | significantly auto-ADP-ribosylated; also recorded: Multiple species of auto-ADP-ribosylated | decreased during the course of the reaction | exhibited decreasing mobility on SDS-PAGE | exhibited auto-ADP-ribosylation following incubation with 5 mM NAD | unable to transfer ADP-ribose to agmatine

— patent US7923535B2, “Tryptophan as a functional replacement for ADP-ribose-arginine in recombinant proteins” (The United States of America as represented by the …, priority 2002, dated 2011)
